According to paper PMC5978004:

Biological target: human MALT1 (mammalian expression) (human) (UniProt Q9UDY8)
Chain of UniProt Q9UDY8 (Q9UDY8 whole entry): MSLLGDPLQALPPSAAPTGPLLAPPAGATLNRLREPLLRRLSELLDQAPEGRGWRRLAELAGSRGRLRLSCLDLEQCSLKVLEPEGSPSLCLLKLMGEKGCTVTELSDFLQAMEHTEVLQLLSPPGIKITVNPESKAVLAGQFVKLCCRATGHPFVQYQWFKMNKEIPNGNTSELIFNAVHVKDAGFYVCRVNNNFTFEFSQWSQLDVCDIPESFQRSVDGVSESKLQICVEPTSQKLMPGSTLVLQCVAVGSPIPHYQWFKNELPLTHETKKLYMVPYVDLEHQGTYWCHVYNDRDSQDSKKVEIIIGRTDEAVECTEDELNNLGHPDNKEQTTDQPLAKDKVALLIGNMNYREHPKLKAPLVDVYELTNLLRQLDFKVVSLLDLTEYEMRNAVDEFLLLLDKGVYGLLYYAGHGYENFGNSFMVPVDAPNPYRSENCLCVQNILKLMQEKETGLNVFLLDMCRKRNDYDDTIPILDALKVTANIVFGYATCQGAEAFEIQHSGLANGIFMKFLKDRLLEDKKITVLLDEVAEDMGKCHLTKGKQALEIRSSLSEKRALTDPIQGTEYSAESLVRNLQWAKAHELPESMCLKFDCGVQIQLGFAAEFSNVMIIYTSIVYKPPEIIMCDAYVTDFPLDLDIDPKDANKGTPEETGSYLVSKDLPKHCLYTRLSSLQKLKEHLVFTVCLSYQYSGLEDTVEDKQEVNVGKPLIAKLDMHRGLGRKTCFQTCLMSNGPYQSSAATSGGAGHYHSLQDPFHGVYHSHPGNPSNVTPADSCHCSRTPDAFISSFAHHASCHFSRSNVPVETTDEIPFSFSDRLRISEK

human MALT1-dependent NF-κB luciferase reporter induction in MALT1-deficient HEK293T cells with or without human MALT1: 2.5 fold
Substance: Nematostella vectensis Bcl10 (NvBcl10), E-tagged, in pCAGGS (natural protein)
